Results as given in patent EP4729537A1 (Universitat Politècnica de València, dated 2024).

Columns and labels:
[1] = target: T1, antigenic protein: class A β-lactamase fragment of Mycobacterium abscessus (Blamab gene) with C-terminal TEV … (Mycobacterium abscessus); experiment: cell-based or functional assay
[2] = target: T1, antigenic protein: class A β-lactamase …; experiment: nitrocefin hydrolysis assay with purified enzyme, Lineweaver-Burk
[3] = target: T2, KPC-2 from Klebsiella pneumoniae, expressed in the periplasm of E. coli BL21(DE3) (Klebsiella pneumoniae, UniProt Q848S6 25-293); experiment: cell-based or functional assay
[4] = target: T3, VIM-2 from Pseudomonas aeruginosa, expressed in the periplasm of E. coli BL21(DE3) (Pseudomonas aeruginosa); experiment: cell-based or functional assay
[5] = target: T4, OXA-48 from Klebsiella pneumoniae, expressed in the periplasm of E. coli BL21(DE3) (Klebsiella pneumoniae, UniProt Q6XEC0 23-265, limits assumed); experiment: cell-based or functional assay
[6] = target: T2, KPC-2 from Klebsiella pneumoniae, …; experiment: nitrocefin assay on E. coli BL21(DE3) cells with the β-lactamase in the periplasm
[7] = target: T3, VIM-2 from Pseudomonas aeruginosa, …; experiment: as above
[8] = target: T4, OXA-48 from Klebsiella pneumoniae, …; experiment: as above

B1: single domain antibody B1 (VHH)
VHH: QVQLQESGGGLVQAGGSLRLSCAASGNIFTVSSMGWYRQAPGKEREFVAAISDGATTNYADSVKGRFTISRDNAKNTVYLQMNSLKPEDTAVYYCAAYASRVGLTVYWGQGTQVTVSS
notes: sdAb from a synthetic naive yeast display library; expressed from pET26b in the E. coli periplasm and purified by chromatography; also called sdAb B1
- Km (µM), with antibody [1]: 42.6 µM
- Vmax (µM/min), with antibody [1]: 0.26 µM/min
- Ki [2]: 15.6 µM

B2: β-lactamase inhibitor B5 antibody (VHH)
VHH: QVQLQESGGGLVQAGGSLRLSCAASGNISDLGTMGWYRQAPGKEREFVAGIGTGSNTYYADSVKGRFTISRDNAKNTVYLQMNSLKPEDTAVYYCAVIAGRSYWIYFYYWGQGTQVTVSS
notes: sdAb from a synthetic naive yeast display library; expressed from pET26b in the E. coli periplasm and purified by chromatography; also called sdAb B5
- Km (µM), with antibody [1]: 57.3 µM
- Vmax (µM/min), with antibody [1]: 0.23 µM/min
- Km(µM), with B5 [3]: 2.19 µM
- Vmax(µM/min), with B5 [3]: 0.5 µM/min
- Km(µM), with B5 [4]: 0.97 µM
- Vmax(µM/min), with B5 [4]: 0.0084 µM/min
- Km(µM), with B5 [5]: 2.26 µM
- Vmax(µM/min), with B5 [5]: 0.061 µM/min
- Ki [2]: 3.8 µM
- Ki [6]: 0.12 µM
- Ki [7]: 68.9 µM
- Ki [8]: 30.8 µM

B3: β-lactamase inhibitor B6 antibody (VHH)
VHH: QVQLQESGGGLVQAGGSLRLSCAASGTISAVSGMGWYRQAPGKEREFVASINRGSTTNYADSVKGRFTISRDNAKNTVYLQMNSLKPEDTAVYYCAALHGTGRVHVYWGQGTQVTVSS
notes: sdAb from a synthetic naive yeast display library; expressed from pET26b in the E. coli periplasm and purified by chromatography; also called sdAb B6
- Km (µM), with antibody [1]: 53.3 µM
- Vmax (µM/min), with antibody [1]: 0.26 µM/min
- Ki [2]: 4.9 µM

B4: β-lactamase inhibitor B2 antibody (VHH)
VHH: QVQLQESGGGLVQAGGSLRLSCAASGTIFVYPYMGWYRQAPGKEREFVAGIGQGATTYYADSVKGRFTISRDNAKNTVYLQMNSLKPEDTAVYYCAAYRYRDDVRRYGIDRYHTYWGQGTQVTVSS
notes: sdAb from a synthetic naive yeast display library; expressed from pET26b in the E. coli periplasm and purified by chromatography; also called sdAb B2
- Km (µM), with antibody [1]: 64.4 µM
- Vmax (µM/min), with antibody [1]: 0.25 µM/min
- Km(µM), with B2 [3]: 121 µM
- Vmax(µM/min), with B2 [3]: 0.7 µM/min
- Km(µM), with B2 [4]: 39.6 µM
- Vmax(µM/min), with B2 [4]: 0.017 µM/min
- Km(µM), with B2 [5]: 6.62 µM
- Vmax(µM/min), with B2 [5]: 0.059 µM/min
- Ki [2]: 2.4 µM
- Ki [6]: 0.06 µM
- Ki [7]: 2.9 µM
- Ki [8]: 10.5 µM

B5: β-lactamase inhibitor B3 antibody (VHH)
VHH: QVQLQESGGGLVQAGGSLRLSCAASGTIFYYPYMGWYRQAPGKEREFVAGIDYGSTTYYADSVKGRFTISRDNAKNTVYLQMNSLKPEDTAVYYCAVVYLVTRKGASQQDEIYSYWGQGTQVTVSS
notes: sdAb from a synthetic naive yeast display library; expressed from pET26b in the E. coli periplasm and purified by chromatography; also called sdAb B3
- Km (µM), with antibody [1]: 51.9 µM
- Vmax (µM/min), with antibody [1]: 0.34 µM/min
- Ki [2]: 2.7 µM

B6: β-lactamase inhibitor B4 antibody (VHH)
VHH: QVQLQESGGGLVQAGGSLRLSCAASGTIFAQDYMGWYRQAPGKEREFVASIAYGTITYYADSVKGRFTISRDNAKNTVYLQMNSLKPEDTAVYYCAVYPTPVTDYIYWGQGTQVTVSS
notes: sdAb from a synthetic naive yeast display library; expressed from pET26b in the E. coli periplasm and purified by chromatography; also called sdAb B4
- Km (µM), with antibody [1]: 45.6 µM
- Vmax (µM/min), with antibody [1]: 0.28 µM/min
- Ki [2]: 5.2 µM
